Test results from the RNAGym collection of RNA variant scans (doi:10.1073/pnas.2313332121).

B1: TPR t1 (parent)
chain: GACCAAUCUGCCCUCAGAGCUCGAGAACAUCUUCGGAUGCAGAGGAGGCAGGCUUCGGUGGCGCGAUAGCGCCAACGUCCUCAACCUCCAAUGCAUCCCACCACAUGAUGAUGCCUGAAGAGCCUUGGUUUUUUG

Variants of: B1
Assay: polymerase ribozyme fitness, log enrichment relative to wild type (log ratio); higher = more active; in vitro selection for triplet polymerase activity
Method in brief: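 Both subunits of a heterodimeric triplet polymerase ribozyme were given their own mutant library, built by PCR and transcribed. Each library was annealed with a biotinylated primer, the partner subunit and triplets, incubated frozen at −7 °C, and its extended constructs gel-excised, captured on streptavidin beads and amplified by RT-PCR, all in one round done in triplicate. Fitness is the logarithm of genotype enrichment relative to wild-type enrichment, with replicates averaged by inverse-variance weighting. That logarithm is base 2, and Illumina-sequenced genotypes needed ≥10 input reads and ≥1 read per output.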

Variant | polymerase ribozyme fitness (log ratio)
GUCCAAUCUGUCCUCAGAGCUCGAGAUCAUCUUCGGAUGCAGAGGAGUCAGGCUUCGGUGGCGAGAUAGCGCCAACGUCCUCAACCUCCAAUGCAUCCGACCACAUGAUGAUCCCUGAAGAGCCUUGGUUUUUUG | -6.93
GGCCAAUCUGCCCUCAGAGCUCGAGAACAUCUUCGGAUGCAGAGGAGGCAGGCUUCGGCGGCGCGAUAGCGCCAACGUCCUCAAUCUCCAAUGCAUCCCACCACAUGAUGAUGCCUGAAGAGCAUUGGUUUUUUG | 0.474
GUCCAAUCUGCACUCAGAGCUCGAGAACAUCUUCGGAUGCAGAGGAGGUAGGCUUCGGUGGCGCGAUAGCGCCAACGUCCUCAACCUCCAAUGCAUCCCACCACAUGAUGAUGCCUGAAGAGCCUUGGUUUUUUG | -3.6
GGCCAAUCUGCCCUCAGAGCUCGAGAACAUCUUCGGAUGCAGAGGAGGCAGGCUUCGGUGGCGCGAUAGCGCCAACGUCCUCAACCUCCAAUGCAUCCCACCACAUGAUAAUGCCUGAAGAGCCUUGGUUUUUUG | -1.38
GUGCAAUCUGCCCUCAGAGCUCGAGAACAUCUUCGGAUGCAGAGGAGGCAGGCUUCGGUGGCGCGAUAGCGCCAACGUCCUCAACCUCCAAUGCAUCCCACCACAUGAUGAUGCCUGAAGAGGCUUGGUUUUUUG | -0.606
GUCCGAUCGGCCUUCAGAGCUCGAGAACAUCUUCGGAUGCAGAGGAGGCAGGCUUCGGUGGCGUGAUAGCGCCAACGUCCUCAACCUCCAAUGCAUCCCACCACAUGAUGAUGCCUGAAGAACCUUGGUUUUUUG | -1.31
GUCCAAUCUGGCCUCAGAGCUCGAGAACAUCUUCGGAUGCAGAGGAGGCAGGCUUCGGUGGCGCGAUAGCGCCAACGUCCUCAACCUCCAAUGCAUCCCACCACAUGAUGAUGCCUGAAGAACCUUGGUUUUUUG | -0.62
GUGCAAUCUGCCCUCAGAGCUCGAGAACAUCUUCGGAUGCAGAGGAGGCAGGCUUCGGUGGCACGAUAGCGCCAACGUCCUCAACCUCCAAUGCAUCCCACCACAUGAUGAUGCCUGAAGAGCCUUGGUUUUUUG | -3.64
GUCCAAUCUGCCUUCAGAGCUCGAGAACAUCUUCGGAUGCAGAGGAGGCAGGCUUCGGUGGCGCGAUAGCGCCAACGUCCUCAAGCUCCAAUGCAUCCCACCACAUGAUGAUGCCUGAAGAGCCUUGGUUGUUUG | -3.98
GUCCGAUCUGCUCUCAGAGCUCGAGAACAUCUUCGGAUGCAGAGGAGGCAGGCUUCGGUGGCGCGAUAGCGCCAACGUCCUCAACCUCCAAUGCAUCCCACCACAUGAUGAGGCCUGAAGAGCCUUGGUUUUUUG | -1.79
GUCCAAUUUGGCCUCAGAGCUCGAGAACAUCUUCGGAUGCAGAGGAGGCAGGCUUCGGUGGCGCGAUAGCGACAACGUCCUCAACCUCCAAUGCAUCCCACCACAUGAUGAUGCCUGAAGAGCCUUGGUUUUUUG | -0.286
GGCCAAUCUGCCCACAGAGCUCGAGAACAUCUUCGGAUGCAGAGGAGGCAGGCUUCGGUGGAGCGAUAGCGCCAACGUCCUCAACCUCCAAUGCAUCCCACCACAUGAUGAUGCCUGAAGAGCCUUGGUUUUUUG | -3.69
GUCCAAUCUGCCGUCAGAGCUCGAGAACAUCUUCGGAUGCAGAGGAGGCAGGCUUCGGUGGUGCGAUAGCGCCAACGUCCUCAACCUCCAAUGCAUCCCACCACAUGAUGAUGCCUGAAGAGCCUUGGUUUUUUG | -2.85
GUCCAAUCUGUCCUCAGAGCUAGAGAACAUCUUCGGAUGCCGAGGAGGCAGGCUUCGGUGGCGCGAUAGCUCCAACGUCCUAAACCUUCAAUGCAUCCCACCACAUGAUGAUGCCUGAAGGGCCUUGGUUUUUUG | -6.23
GUCCAAUCUGCACUCAGAGCUCGAGAACAUCUUCGGAUGCAGUGGAGGCAGGCUUCGGUGGCGCGAUAGCGCCAACGUCCUCAACCUCCAAUGCAUCCCACCACAUGAUGAUGCCUGAAAAGCCUUGGUUUUUUG | -1.89
GUCCAAUCUGCCGUCAGAGCUCGAGAACAUCUUCGGAUGCAGAGGAGGCAGGCUUCGGUUGCGCGAUAGCGCCAACGUCCUCAAACUCCAAUGCAUCCCACCACAUGAUGAUGCCUGAAGAGCCUUGGUUUUUUG | -4.99
GUCCAAUCUGCCCUCAGAGCUCGAGAACAUCUUCGGAUGCAGAGGAGGCGGGCUUCGGUGGCGCGAUAGCUCCAACGUCCUCAACCUCCAAUGCAUCCCACCACAUGAUGAUGCCUGGAGAGCCUUGGUUUUUUG | -2.92
GUCCAAUCUGCCCUCAGAGCUCGAGAACAUCUUCGGAUGCAGAGGGGGCAGGCUUCGGUGGCGCGAUAGCGCUAACGUCCCCAACCUCCAAUGCAUCCCACCACAUGAUGAUGCCUGAAGAGCCUUGGUUUUUUG | -3.83
GGCCAAUCUGCCCUCAGAGCUCGAGAACAUCUUCGGAUGCAGAGGAGGCAGGCUUCGGUGGCGCGAUAGCGCCAACGUCCUCAACCACCAAUGCAUCCCACCACAUGAUGAAGCCUGAAGAGCCUUGGUUUUUUG | 1.3
GUCCAAUAUGCCCUCAGAUCUCGUGUACAUCUCCGGAUGCAGAGGAGGCAGGCUUCGGUGGCGCGAUAGCGCCAACGUCCUCAACCUCCAAUGCAUCCCACCACAUGGUGCUGCCUGAAGGGCCUUGGUUUUUUG | -7.47
GGCCAAUCUGCCCUCAGAGCUCGAGAACAUCUUCGGAUGCAGAGGAGGCAGGCUUCGGUGGCGCGAUAGCGCCAACGUCCUCAACCUCCAAUGCAUCCCACCACAUGAUGAUGCCAGAAGUGCCUUGGUUUUUUG | -0.583
